Square brackets hold non-standard residues; d marks the D form. Peptide text beside a SMILES is read from it. * marks the point of attachment. DOTA = O=C(O)CN1CCN(CC(=O)O)CCN(CC(=O)*)CCN(CC(=O)O)CC1; Palmitoyl = CCCCCCCCCCCCCCCC(=O)*
Tests used:
CXCR4 [1] = biological target: T1, CXCR4 (Homo sapiens, UniProt P61073); test: Antibody-competition assay (anti-CXCR4 clone 12G5) on Ghost-CXCR4 cells; assay type: binding; settings: competition with CXCR4 antibody clone 12G5, Ghost-CXCR4 cells, 4 °C, 2 h; mean ± SEM
T1 construct: Jurkat cells, which are naturally expressing high levels of CXCR4; host or cells: Jurkat, clone E6-1
T1 sequence (P61073 whole entry): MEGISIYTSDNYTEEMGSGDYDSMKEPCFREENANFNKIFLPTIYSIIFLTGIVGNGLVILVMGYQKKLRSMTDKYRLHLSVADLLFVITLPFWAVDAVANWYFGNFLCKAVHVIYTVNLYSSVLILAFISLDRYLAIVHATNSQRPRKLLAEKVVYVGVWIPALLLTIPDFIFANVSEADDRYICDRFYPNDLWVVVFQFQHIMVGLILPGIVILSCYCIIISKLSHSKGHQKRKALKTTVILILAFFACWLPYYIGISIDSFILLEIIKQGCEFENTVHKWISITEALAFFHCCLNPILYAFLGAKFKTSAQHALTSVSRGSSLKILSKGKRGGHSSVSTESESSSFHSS
Description: (§1) Binding of the DOTA-conjugated EPI-X4 derivatives to CXCR4 was assessed by an antibody-competition assay[26] using Ghost cells stably transfected with CXCR4, as well as on Jurkat cells, which are naturally expressing high levels of CXCR4. […] The buffer was removed and plates were precooled at 4 °C. Ligands were serially diluted in PBS. The antibody (clone 12G5, Allophycocyanin labeled, BD Pharmingen #555976) was diluted in PBS containing 1% FBS. The antibody was used at a fixed concentration close to its KD. 15 μL of compound and immediately afterward 15 μL of the antibody were added to the cells. Plates were incubated at 4 °C in the dark for 2 h allowing to establish an equilibrium binding. Cells were then washed twice with PBS containing 1% FBS and fixed with 2% paraformaldehyde. Antibody binding was analyzed by flow cytometry (FACS CytoFLEX; Beckman Coulter).

CXCR4 [2] = biological target: T1, CXCR4; test: Antibody-competition assay (anti-CXCR4 clone 12G5) on Jurkat cells; assay type: binding; settings: competition with CXCR4 antibody clone 12G5, Jurkat cells, 4 °C, 2 h; mean ± SEM
Description: as §1

Jurkat xenografts [3] = assay type: in vivo, mouse; settings: 1 h p.i., SPECT/CT or PET/CT
Description: The ability of the ^177Lu ligands to target CXCR4 in vivo was assessed by SPECT/CT imaging in Jurkat xenografts. […] 1 h after injection, the remaining amount of radioligand in the body (and vice versa, the washout) was quantified by measuring the total body activity (mouse) in a dose calibrator. The % of the radioligand remaining in the body after 1 h is reported in Figure 6A as % of the remaining activity in reference to the injected activity (100%).
Figure 6 SPECT/CT images as maximum intensity projections (MIPs) of Jurkat tumor-bearing mice at 1 h p.i. of ^177Lu-labeled ligands (200 pmol, ∼15 MBq). […] (B) Same SPECT/CT images of ^177Lu-1, ^177Lu-2, ^177Lu-5, and ^177Lu-6, adapted in a lower scale. T: tumor, L: liver, and K: kidneys. […] TEXT PRINTED IN THE PICTURE: (A) ^177Lu-1: Remaining Activity (% injected): 6 % | (A) ^177Lu-2: Remaining Activity (% injected): 7 % | (A) ^177Lu-5: Remaining Activity (% injected): 7 % | (A) ^177Lu-6: Remaining Activity (% injected): 8 % | (A) ^177Lu-7: Remaining Activity (% injected): 55 % | (A) ^177Lu-9: Remaining Activity (% injected): 94 %
(§2) The experimental protocol involving animals was approved by the Veterinary Office (Department of Health) of the Cantonal Basel-Stadt (Approval No. 30515) in accordance with the Swiss regulations for animal treatment. Female athymic nude-Foxn1^nu/Foxn1^+ mice (Envigo, The Netherlands), 4–6 weeks old, were injected subcutaneously with 10^7 Jurkat cells in a 200 μL (1:1) mixture of PBS and Matrigel (CorningMatrigelMembrane matrix, Fischer Scientific, Germany) on the right shoulder. The tumors were allowed to grow for 3–4 weeks before commencement of the experiments.
Nude mice bearing Jurkat xenografts were intravenously injected via the tail vein with ∼15 MBq (200 pmol) of the ^177Lu ligands and 8 MBq (200 pmol) of ^68Ga-7 were euthanized 1 h post injection (p.i.). The radioactivity in the syringe before and after injection was measured followed by measuring the amount of radioactivity remaining in the sacrificed mice. […]

Jurkat xenografts [4] = test: in vivo; settings: female, athymic nude-Foxn1^nu/Foxn1^+, mouse, iv, 200 pmol, 1 h
Description: Quantification of the total body distribution of ^177Lu-7 and ^68Ga-7 was performed in Jurkat xenografted mice after intravenous injection of 100 μL, 200 pmol, with […], respectively (n = 5). The mice were sacrificed at 1 h p.i. ^177Lu-7 and ^68Ga-7 accumulated mainly in the kidneys (83.1 ± 25.5 and 75.6 ± 30.3%IA/g, respectively, p = 0.59), liver (5.19 ± 1.08 and 4.08 ± 1.05%IA/g, respectively, p = 0.07) and tumor (2.25 ± 0.43 and 2.24 ± 0.57%IA/g, respectively, p = 0.97), as already seen in the SPECT/CT and PET/CT images (Figures 6 and 7). Uptake in the tumor was lower than for the kidneys and liver but higher as in all other tissues investigated. […] The uptake seen in the liver might be attributed, at least partially, to the fact that CXCR4 is constitutively expressed in the sinusoidal endothelial cells of the murine liver[38] or could be related to another yet-unknown mechanism previously reported for other CXCR4-targeting probes.[11],[39] Regretfully, there are no direct measurements available for the affinity of ^177Lu-7 with the murine CXCR4 (mCXCR4). This is relevant for assessing its total body distribution. However, we have shown that EPI-X4 and EPI-X4 derivatives are active in mouse models of inflammatory diseases[22],[25] and cancer.[40] More specifically, EPI-X4 derivatives such as JM#21 reduced immune cell influx in lungs of mice suffering from allergic asthma or reduced skin inflammation in a murine model of atopic dermatitis upon topical administration. […] Thus, we speculate that the DOTA conjugate of JM#173 (ligand-7) also cross-reacts to the mCXCR4. […] Last, but not the least, the uptake in the kidneys was predominant, and given the highly hydrophilic character of ^177Lu-7, is attributed, at least partially, to its excretion via this path.
as §2
Quantitative biodistribution studies of ^177Lu-7 (100 μL, 200 pmol, 0.8–1 MBq) and ^68Ga-7 (100 μL, 200 pmol, 2–3 MBq) were performed after intravenous injection of the radioligand via the tail vein on Jurkat xenografts. […] 1 h after injection of the radioligand, mice were sacrificed, organs of interest and blood were collected, rinsed of excess blood, blotted dry, weighed, and counted in a γ-counter. The samples were counted against a suitable diluted aliquot of the injected solution as the standard and the results are expressed as percentage injected activity per gram of tissue (%IA/g). Statistical analysis between selected organs was performed by Welch’s t-test and p values <0.05 were considered statistically significant.

SMILES: CC(C)C[C@@H](N)C(=O)N[C@@H](CC(C)C)C(=O)N[C@@H](CCCNC(=N)N)C(=O)N[C@@H](Cc1c[nH]c2ccccc12)C(=O)N[C@@H](CO)C(=O)N[C@@H](CCCNC(=N)N)C(=O)N[C@@H](CCCCN)C(=O)N[C@@H](CC(C)C)C(=O)N1CCC[C@H]1C(=O)N[C@@H](CSSC[C@H](NC(=O)[C@@H]1CCCN1C(=O)[C@H](CC(C)C)NC(=O)[C@H](CCCCN)NC(=O)[C@H](CCCNC(=N)N)NC(=O)[C@H](CO)NC(=O)[C@H](Cc1c[nH]c2ccccc12)NC(=O)[C@H](CCCNC(=N)N)NC(=O)[C@H](CC(C)C)NC(=O)[C@H](N)CC(C)C)C(=O)N[C@H](C(=O)N[C@@H](CO)C(=O)N[C@@H](CCCCNC(=O)CN1CCN(CC(=O)O)CCN(CC(=O)O)CCN(CC(=O)O)CC1)C(=O)O)C(C)C)C(=O)N[C@H](C(=O)N[C@@H](CO)C(=O)N[C@@H](CCCCNC(=O)CN1CCN(CC(=O)O)CCN(CC(=O)O)CCN(CC(=O)O)CC1)C(=O)O)C(C)C [^natLu-6 dimer, metal not drawn]
- IC50 (CXCR4 [1]): 763 ± 135 nM
- IC50 (CXCR4 [2]): 662 ± 160 nM

SMILES: CC[C@@H](C)[C@@H](N)C(=O)N[C@@H](CC(C)C)C(=O)N[C@@H](CCCNC(=N)N)C(=O)N[C@@H](Cc1c[nH]c2ccccc12)C(=O)N[C@@H](CO)C(=O)N[C@@H](CCCNC(=N)N)C(=O)N[C@@H](CCCCN)C(=O)N[C@@H](CCCCNC(=O)CN1CCN(CC(=O)O)CCN(CC(=O)O)CCN(CC(=O)O)CC1)C(N)=O [^68Ga-7, metal not drawn] (H-[dI]LRWSRKK(DOTA)-NH2; N-terminus assumed)
- visualization of CXCR4-expressing tumor xenograft by imaging (Jurkat xenografts [3]): visualized the CXCR4-expressing tumor xenograft
- uptake in adrenal (Jurkat xenografts [4]): 2.69 ± 0.94 % IA/g
- uptake in femur (Jurkat xenografts [4]): 1.29 ± 0.43 % IA/g
- uptake in heart (Jurkat xenografts [4]): 0.25 ± 0.09 % IA/g
- uptake in intestine (Jurkat xenografts [4]): 0.59 ± 0.18 % IA/g
- uptake in lung (Jurkat xenografts [4]): 1.78 ± 0.81 % IA/g
- uptake in muscle (Jurkat xenografts [4]): 0.44 ± 0.26 % IA/g
- uptake in pancreas (Jurkat xenografts [4]): 0.20 ± 0.11 % IA/g
- uptake in spleen (Jurkat xenografts [4]): 0.85 ± 0.29 % IA/g
- uptake in stomach (Jurkat xenografts [4]): 0.41 ± 0.16 % IA/g

SMILES: CC[C@H](C)[C@H](N)C(=O)N[C@@H](CC(C)C)C(=O)N[C@@H](CCCNC(=N)N)C(=O)N[C@@H](Cc1c[nH]c2ccccc12)C(=O)N[C@@H](CO)C(=O)N[C@@H](CCCNC(=N)N)C(=O)N[C@@H](CCCCN)C(=O)N[C@@H](CC(C)C)C(=O)N1CCC[C@H]1C(=O)N[C@@H](CSSC[C@H](NC(=O)[C@@H]1CCCN1C(=O)[C@H](CC(C)C)NC(=O)[C@H](CCCCN)NC(=O)[C@H](CCCNC(=N)N)NC(=O)[C@H](CO)NC(=O)[C@H](Cc1c[nH]c2ccccc12)NC(=O)[C@H](CCCNC(=N)N)NC(=O)[C@H](CC(C)C)NC(=O)[C@@H](N)[C@@H](C)CC)C(=O)N[C@H](C(=O)N[C@@H](CO)C(=O)N[C@@H](CCCCNC(=O)CN1CCN(CC(=O)O)CCN(CC(=O)O)CCN(CC(=O)O)CC1)C(=O)O)C(C)C)C(=O)N[C@H](C(=O)N[C@@H](CO)C(=O)N[C@@H](CCCCNC(=O)CN1CCN(CC(=O)O)CCN(CC(=O)O)CCN(CC(=O)O)CC1)C(=O)O)C(C)C [^natLu-1 dimer, metal not drawn]
- IC50 (CXCR4 [1]): 225 ± 111 nM
- IC50 (CXCR4 [2]): 122 ± 63 nM

SMILES: CCCCCCCCCCCCCCCC(=O)NCCCC[C@H](NC(=O)[C@H](CCCCN)NC(=O)[C@H](CO)NC(=O)[C@H](Cc1c[nH]c2ccccc12)NC(=O)[C@H](CCCNC(=N)N)NC(=O)[C@@H](NC(=O)[C@@H](N)[C@@H](C)CC)C(C)C)C(=O)N[C@H](C(=O)N1CCC[C@H]1C(=O)N[C@@H](CS)C(=O)N[C@H](C(=O)N[C@@H](CO)C(=O)N[C@@H](CCCCNC(=O)CN1CCN(CC(=O)O)CCN(CC(=O)O)CCN(CC(=O)O)CC1)C(=O)O)C(C)C)C(C)C [ligand-8, I^1VRWSKK^7(Pal)VPCS^12K(DOTA)] (H-IVRWSKK(Palmitoyl)VPCVSK(DOTA)-OH; N-terminus and C-terminus assumed)
- IC50 (CXCR4 [1]): 15 ± 5 nM
- IC50 (CXCR4 [2]): 4 ± 2 nM
